T1: cynomolgus monkey TMPRSS6 expressed on HEK293T cells, CynoTMPRSS6-(His)6 (cynomolgus monkey, UniProt Q8IU80 10-811 (human entry))
T1 chain: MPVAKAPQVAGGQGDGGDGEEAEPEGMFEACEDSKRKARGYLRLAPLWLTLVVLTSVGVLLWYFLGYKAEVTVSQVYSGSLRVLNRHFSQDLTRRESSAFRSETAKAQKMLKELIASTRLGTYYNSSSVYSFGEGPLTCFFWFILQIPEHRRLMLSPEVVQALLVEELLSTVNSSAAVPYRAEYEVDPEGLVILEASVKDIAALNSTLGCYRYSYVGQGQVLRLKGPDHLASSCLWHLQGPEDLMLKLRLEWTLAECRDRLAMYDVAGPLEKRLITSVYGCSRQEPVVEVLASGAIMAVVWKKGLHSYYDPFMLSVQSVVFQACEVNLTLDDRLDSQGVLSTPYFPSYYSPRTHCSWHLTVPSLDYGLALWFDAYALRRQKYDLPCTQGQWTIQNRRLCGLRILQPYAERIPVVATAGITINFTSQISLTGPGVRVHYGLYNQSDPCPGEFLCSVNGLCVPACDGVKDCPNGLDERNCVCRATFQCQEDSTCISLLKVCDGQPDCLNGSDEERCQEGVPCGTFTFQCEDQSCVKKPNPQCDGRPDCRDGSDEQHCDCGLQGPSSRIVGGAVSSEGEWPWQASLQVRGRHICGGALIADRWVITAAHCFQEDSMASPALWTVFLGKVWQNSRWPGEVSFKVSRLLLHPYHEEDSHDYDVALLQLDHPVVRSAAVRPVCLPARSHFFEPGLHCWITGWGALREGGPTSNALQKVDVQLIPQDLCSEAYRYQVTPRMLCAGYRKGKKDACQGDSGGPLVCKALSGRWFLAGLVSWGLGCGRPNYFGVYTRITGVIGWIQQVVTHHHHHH

T2: cynomolgus monkey TMPRSS6 expressed on HEK293T cells, CynoTMPRSS6-(His)6
T2 chain: T1 chain

B1: humanized anti-TMPRSS6 antibody variant hzMWTx-001 Var (antibody, human IgG1, kappa, N297A, V domains shown)
VH: EVQLVQSGAEVKKPGASVKVSCKASGYTFTSYWITWVRQAPGQRLEWIGNIYPGSGSTYYNEKFKSKATITRDTSSRTAYMELSSLRSEDTAVYYCAPYDADYAMDYWGQGTLVTVSS
VL: DIQMTQSPSSLSASVGDRVTITCKASQDISNYLSWFQQKPGKAPKLLIYRANRLVEGVPSRFSGSGSGTDFTLTISSLQPEDFATYFCLQYDEFPLTFGGGTKVEIKR
notes: Human IgG1 / kappa
B2: humanized anti-TMPRSS6 antibody variant hzMWTx-002 Var (antibody, human IgG1, kappa, N297A, V domains shown)
VH: EVQLVQSGAEVKKPGASVKVSCKASGFNIKDYYIHWVRQATGQGLEWMGRIDPEDAESEYAPKFQGRVTITADTSTDTAYMELSSLRSEDTAVYYCTRGDSMMVTYFDYWGQGTLVTVSS
VL: DIQMTQSPSSLSASVGDRVTITCKASQDVSTAVAWYQQKPGKAPKLLIYWAFTRHTGVPSRFSGSGSGTDYALTISSLQPEDFATYYCQQHYRSPWTFGGGTKVEIKR
notes: Human IgG1 / kappa
B3: humanized anti-TMPRSS6 antibody variant hzMWTx-003 Var (antibody, human IgG1, kappa, L234A L235A, V domains shown)
VH: QVQLVQSGAEVKKPGASVKVSCKASGFNIEDYYMHWVRQAPGQRLEWMGRIDPEDAETTYSPKFQGRVTIIPDTSANTAYMELSSLRSEDTAVYYCARSIYLDPMDYWGQGTLVTVSS
VL: DIQMTQSPKSLSASVGDRVTITCRASQDVTTALAWYQQKPGQSPKLLIYWATTRHSGVPSRFSGSGSGTDFTLTISSLQPEDFATYYCQQHYSTPYTFGQGTKLEIKR
notes: Human IgG1 / kappa

Target: T1, cynomolgus monkey TMPRSS6 expressed on …
Experiment: summary of Example 4 (cell surface ELISA)
Procedure: HEK293T cells stably expressing mouse TMPRSS6 (generated by LakePharma Inc as described above, FIGS. 4J, 4L, 4N, 4P, 4R, 4T) or cynomolgus monkey (generated in house as described above, FIGS. 4K, 4M, 4O, 4Q, 4S, 4U) were fixed with methanol (100%), and washed with dPBS (Dulbecco's phosphate-buffered saline, Corning Cellgro) before incubation with various concentrations of anti-TMPRSS6 antibodies and their humanized variants diluted in BSA medium (DMEM+1% Pen/Strep+10 mM HEPES+1 mg/ml BSA (Sigma-Aldrich)). Purified mouse IgG (FIGS. 4J-4O) or Human IgG1 (FIGS. 4P-4U) was used as a control. After incubation, cells were washed with BSA medium and then incubated with goat anti-mouse (Invitrogen, FIGS. 4J-4O) or anti-human (Millipore, FIGS. 4P-4U) IgG conjugated with HRP as a 2° antibody. Finally, cells were washed with dPBS to remove unbound antibody and color developed with ELISA liquid substrate (Sigma-Aldrich), followed by stopping the reaction with addition of the same volume of […] 1M H₂SO₄. Bound antibody was measured by absorbance at OD₄₅₀ₙₘ.

Row | binding result | Binder
1 | binds | B1
2 | binds | B2
3 | binds | B3

Target: T2, cynomolgus monkey TMPRSS6 expressed on …
Experiment: cell surface ELISA

Row | EC50 [µg/mL] | Binder
4 | 0.003 | B1
5 | 0.06 | B2
6 | 0.03 | B3

— patent publication US20250136718A1 (MABWELL THERAPEUTICS, published 2025)
